Experimental data taken from the nanobody polyreactivity screen of Harvey et al. (2022).

experiment: yeast display, Sf9 membrane polyspecificity reagent, FACS + sequencing; frameworks hold sequencing errors
Procedure, shortened: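 Galactose-induced (36–48 hours) yeast carrying a synthetic nanobody display library were exposed to 10% biotinylated, detergent-solubilized Sf9 membrane reagent at 4 °C for 1 hour. FACS followed streptavidin microbead enrichment, using low and high (top ~1%) gates for expression (anti-HA) and reagent binding (streptavidin). Colony PCR, MiSeq 2 × 250 sequencing and CDR-length filtering followed. Labels for polyreactivity reflect the gate of origin.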

Row | Sequence | polyreactivity (PSR sort gate)
1 | QVQLVESGGGLDQARGSLRLSCAASAPTFNSNAMGWYRQAPGKERDLVADINGGGSTYYADSVKGRFTISRDNAKNTVYLQMNSLKPEDTAVYYCAKCYTWYVWYPHGYWGQGTQVTVSS | low polyreactivity
2 | QVQLVESGGGLDQARGSLRLSCAASGGIFDHNAMGWYRQAPGKEREFVAAITWSGGGTYYADSVKGRFTISRDNAKNTVYLQMNSLKPEDTAVYYCAATVYGIYYYGKDRYDYWGQGTQVTVSS | low polyreactivity
3 | QVQLVESGGGLDQARGSLRLSCAASGRIFRSYVMGWYRQAPWKERELVAAISWRGGSTYADSVKGRFTISRDNAKNTVYLQMNSLKPEDTAVYYCAARGPYTYRRYCYWGQGTQVTVSS | high polyreactivity
4 | QVQLVESGGGLDQARGSLRLSCAASGSTFYLYAMGWYRQAPGKERELVAAISSGGRTYYADSVKGRFTISRDNAKNTVYLQMNSLKPEDTAVYYCAKVYRRRYYWGQGTQVTVSS | high polyreactivity
5 | QVQLVESGGGLDQARGSLRLSCAASGTTIGGNAMGWYRQAPGKERELVAAIDSGGSTYADSVKGRFTISRDNAKKTVYVQMNSLKPEDTAVYYCAAVWEFVHFWSFDYWGQGTQVTVSS | low polyreactivity
6 | QVQLVESGGGLDQARGSLRLSCPASGFIFTDYAMGWYRQAPGKERELVAGISGSGGRTYYADSVKGRFTISRDNAKNTVYLQMNSLKPEDTAVYYCAARGVPWLWYFRGMYWGQGTQVTVSS | high polyreactivity
7 | QVQLVESGGGLDQSGGSLRLTCAASGFTFVINDMGRYIHAPGKEMEWVADITSGGDTYYADSVKGRFTISRDNAKNTVYLQSNRLKPEDTAVYYCAADIYPDWIYLLYGYWGQGTQVNVSS | low polyreactivity
8 | QVQLVESGGGLEQAGGSLRLTWAASGRIFYVYAMGLYIQAPGKERELVAAITWRGGTTYYADSVKGRFTISRDNAQNTVYLEMNSLKPEDTAVYYCNAKYFRSYYSIEYDYWGQGTQVTVSS | low polyreactivity
9 | QVQLVESGGGLFHAGGSLRLSCAASGSTFSRNAMGWYIPAPGKEREFVAAISWSGSSTYYADSVKGRFTISRDNAKNTVYLQMNSLKPEDTAVYYCAARSYYDGFYYWGQGTQVTVSS | high polyreactivity
10 | QVQLVESGGGLFKAGGSLRLRCAPSGSIFDYNTMAWYRQAPGKERQFVAAISSARGGTSYADSVKGRFTISRDNAKNTVYLQMNSLKPEDTAVYYCAALIILTPYQRQYWKYGAYFYWGQGTQVTVSS | high polyreactivity
11 | QVQLVESGGGLFKAGGSLRLSCAASGRIFEKYAMGWYRQAPGKERELVAAISYSGGSTYYADSVKGRFTISRDNAKNTVYFQMNCLKPEDTAVYYCARYSRTQAYDYWGQGTQVTVSS | high polyreactivity
12 | QVQLVESGGGLFQAGGILRLSCAASGRTFHRNAMGWYRLAPGKERELVAAITGDGRTNYADSVKGRFTISRDNAKNTVYLQMNSLKPEDTAVYYCAARFSYRSYDYWGQGSQVTVSS | low polyreactivity
13 | QVQLVESGGGLFQAGGRLRLSCAASGRNCNAYTMGWYRQAPGKERELVAAISRRGGSTYYADSVKGRFTISRDNAQNTVSLQMNSLNPEDTAVYYCATKSQYDYDYWGQGTQVTVSS | high polyreactivity
14 | QVQLVESGGGLFQAGGRLRLSCAPSGGTLPKYAMAWYRHAPGKERELVARITWNDGTTYYADSVKGRFTISRDNAKNTVYLQMNSLIPEDTAVYYCNTDRAYWFLYPFSYYYWGQGTQVTVSS | low polyreactivity
15 | QVQLVESGGGLFQAGGSLRISCAASGGTFFRYAMGWYRQAPGKERELVAAITWSSGSTYYADSVKGRFTISRDNAKNTGYLQMNSLKPEDTAVYYYDYYTYGDYWGQGTEVTVSS | low polyreactivity
16 | QVQLVESGGGLFQAGGSLRLICAASGRTYYAYARGWYRQAPGKERELVAAITSGGSTYYADSVKGRFTISRDNAKNTVYLQMNSLKPEDTAVYYCNAGYYQWPFSGYDYWGQGTQVTVSS | low polyreactivity

Row | Sequence | polyreactivity (PSR sort gate)
17 | QVQLVESGGGLFQAGGSLRLICADSGRTFGYNAMGWYRKATGKDRELVAAINWSGASTYYADSVKGRFTISRDNAKNTVYLQMNCLKPEDTAVYYCAAAYSYIYGFDYWGQGTQVTVSS | low polyreactivity
18 | QVQLVESGGGLFQAGGSLRLRCAATGLIFDLYAMGWYRQAPGKERELVAVISYDGGSTYYADSVKGRFTISRDNAKNTVYLQMNSLKPEETAVYYCNTFDGLVSPSDLYDYWGQGTQVTVSS | low polyreactivity
19 | QVQLVESGGGLFQAGGSLRLSCAASGFIFRDNAMGWYRQAPGKERELVAAISWSSDSTYYADSVKGRFTISRDNEKNTVYLQMNSLNPEDSAVYYCAGKGQRGYWWGFDYWGQGTQVTVSS | low polyreactivity
20 | QVQLVESGGGLFQAGGSLRLSCAASGFIFRYYAMGWYRQAPGKERELVAAITRGGSTYYADSVKGRFTISRDNAKNTVYLQMNSLKPEDTAVYDCAARLYTQYYYWGQCTQVTVSS | high polyreactivity
21 | QVQLVESGGGLFQAGGSLRLSCAASGFIFYPNAMGWYRQAPGKEREWVAAITDSGGSTYYADSVKGRFTISRDNAKNTVYLQMNSLKPEDTAVYYCNADYGGYYWTWGYDYWGQGTQVTVSS | low polyreactivity
22 | QVQLVESGGGLFQAGGSLRLSCAASGFTFFIYAMGGSRQAPGKEREFVAAITGSGGSTYYADSVKGRFTISRDNAKNTVYLQLNSLKPEDTAVYYCNKLSYGRSGYWGQGTQVTVSS | high polyreactivity
23 | QVQLVESGGGLFQAGGSLRLSCAASGFTFGYYAMGWYRQAPGKERELVASISITAGSTYYADSVKGRFTISRDNAKNTVYLQMNSLKPEDTAVYYCAAKRRTRQSYYTEYYWGQGTQVTVSS | high polyreactivity
24 | QVQLVESGGGLFQAGGSLRLSCAASGFTFRTYAMGWYRQAPGKERELVATIRRAGSTNYADSVKGRFTISRDNAKNTVYLQMNRLKPEDTAVYYCNAGFSHRSDNGIDGYYWGPGTQVTVSS | high polyreactivity
25 | QVQLVESGGGLFQAGGSLRLSCAASGGIFPFYAMGWYRQAPGKERELVAAISSGGSTNYADSVKGRFTISRDNAKNTVYLQMNSLKPEDTAVYYWNTVFQLGEGGSYGYDYWGQGTQVTVSS | low polyreactivity
26 | QVQLVESGGGLFQAGGSLRLSCAASGITFAYYAMAWYRQAPGKERELVARISRRGGSTYYADSVKGRFTISRDNAKNTVYLQMNSLKPEDTAVYYCAARVVVPKPYVDGDYWGQGTQVTVSS | high polyreactivity
27 | QVQLVESGGGLFQAGGSLRLSCAASGITFSKNSMGWYRQAPGQERELVAAITRRSVSKYYADSVKGRFTISRDNENNNLYLQMNSLKPEYTAVYYCAASYSSKHGYWGQGTQVTVSS | high polyreactivity
28 | QVQLVESGGGLFQAGGSLRLSCAASGLTFNRYAMGWSRQAPGKERELVAAIDYSGGRTYYADSVKGRFTISRDYAKNTVYLQMNSLKPEDTAVFYCNALTRSVSRLLYDFWGQGSQVTVSS | high polyreactivity
29 | QVQLVESGGGLFQAGGSLRLSCAASGRIFAYNTMGWYRQAPAKERELVAVITSGGSTNYADSVKGRFTISRDNAKNTVYLQLNSLKAEDTAVYYCAKRPYGRSGGSRYDYWGQGTQVTVSS | high polyreactivity
30 | QVQLVESGGGLFQAGGSLRLSCAASGRIFPWNTMGWYRQAPGKERELVAGINNGDRTYYADSVKGRFTISRVNAKNTVYLQMNSLKPEDTAVYYCAVDTWYFLFQYGYYQEGDYWGQGTQVTVSS | low polyreactivity
31 | QVQLVESGGGLFQAGGSLRLSCAASGRIFPYKVMGWYRQAPGKERELVAAISSGGTTDYADSVKGRFTISRDNAKNTVYLQMNSLKPEDTAVYYCASTYVYWTWGYDYWGQGTQVTVSS | low polyreactivity
32 | QVQLVESGGGLFQAGGSLRLSCAASGRIFYYNTMGWYRQAPGIERELVAGISTRGGRTYYADSVKGRFTISRDNAKNTVYLQMNSLKPEDTAVYYCAKQYGSYGRYYKYYYWGQGTQLTVSS | high polyreactivity
